The numbers were not newly measured in PMC6651453, which cites them from elsewhere.

Read-outs that look alike come from different tables or passages of the source.

Data set [1] has as its target TIN2 (Homo sapiens) (UniProt Q9BSI4). The data set is described as follows: thermophoresis.
For data set [2], the target named is TIN2 2-202 (Homo sapiens) (UniProt Q9BSI4). The data set can be described thus: fluorescence polarization. (In general: Fluorescence polarisation rises when a labelled molecule tumbles more slowly, as on binding a larger partner.)
For data set [3] the target is unchanged. The data set can be described thus: fluorescence polarization. The source holds these as a separate data set.
Data set [4] deals with TPP1 TBM1 (Homo sapiens) (UniProt Q96AP0). The data set is described as follows: fluorescence polarization.
The target is the same in data set [5]. The data set can be described thus: fluorescence polarization. The source holds these as a separate data set.
Data set [6] concerns the target POT1 330-634 (Homo sapiens) (UniProt Q9NUX5). The data set can be described thus: isothermal titration calorimetry. In general terms: In ITC the heat of successive injections is recorded.
Data set [7] deals with TPP1 89-544 (Homo sapiens) (UniProt Q96AP0). The data set can be described thus: fluorescence anisotropy and thermophoresis.

Sequence of UniProt Q9NUX5 (Q9NUX5 330-634): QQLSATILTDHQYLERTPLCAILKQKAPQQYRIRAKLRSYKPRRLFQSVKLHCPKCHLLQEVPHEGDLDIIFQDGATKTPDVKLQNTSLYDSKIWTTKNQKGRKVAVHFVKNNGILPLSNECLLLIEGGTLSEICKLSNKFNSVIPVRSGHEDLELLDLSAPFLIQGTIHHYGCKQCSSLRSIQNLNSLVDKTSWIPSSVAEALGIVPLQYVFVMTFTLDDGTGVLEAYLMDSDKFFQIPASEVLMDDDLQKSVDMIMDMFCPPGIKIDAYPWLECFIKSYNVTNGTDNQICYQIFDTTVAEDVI

TRF2 (from UniProt Q15554): the Kd (usually the equilibrium constant for the complex coming apart) in data set [1] was 360 nM.

For the substance TRF2 TBM2 (from UniProt Q15554), the Kd in data set [2] is 1100 nM; in data set [3], 2700 nM. With TIN2 2-202 (from UniProt Q9BSI4), the values for the Kd in data set [4] and in data set [5] were 140 nM and 520 nM, respectively. TRF1 (from UniProt P54274): in data set [1], the Kd is 240 nM. On to TPP1 255-337 (from UniProt Q96AP0), for which the Kd in data set [6] was 120 nM. Turning to TIN2 (from UniProt Q9BSI4), the dissociation constant Kd in data set [7] was 2800 nM.
